Reference: patent US20100209436

T1: human OPA1 splice variant 7
T1 chain: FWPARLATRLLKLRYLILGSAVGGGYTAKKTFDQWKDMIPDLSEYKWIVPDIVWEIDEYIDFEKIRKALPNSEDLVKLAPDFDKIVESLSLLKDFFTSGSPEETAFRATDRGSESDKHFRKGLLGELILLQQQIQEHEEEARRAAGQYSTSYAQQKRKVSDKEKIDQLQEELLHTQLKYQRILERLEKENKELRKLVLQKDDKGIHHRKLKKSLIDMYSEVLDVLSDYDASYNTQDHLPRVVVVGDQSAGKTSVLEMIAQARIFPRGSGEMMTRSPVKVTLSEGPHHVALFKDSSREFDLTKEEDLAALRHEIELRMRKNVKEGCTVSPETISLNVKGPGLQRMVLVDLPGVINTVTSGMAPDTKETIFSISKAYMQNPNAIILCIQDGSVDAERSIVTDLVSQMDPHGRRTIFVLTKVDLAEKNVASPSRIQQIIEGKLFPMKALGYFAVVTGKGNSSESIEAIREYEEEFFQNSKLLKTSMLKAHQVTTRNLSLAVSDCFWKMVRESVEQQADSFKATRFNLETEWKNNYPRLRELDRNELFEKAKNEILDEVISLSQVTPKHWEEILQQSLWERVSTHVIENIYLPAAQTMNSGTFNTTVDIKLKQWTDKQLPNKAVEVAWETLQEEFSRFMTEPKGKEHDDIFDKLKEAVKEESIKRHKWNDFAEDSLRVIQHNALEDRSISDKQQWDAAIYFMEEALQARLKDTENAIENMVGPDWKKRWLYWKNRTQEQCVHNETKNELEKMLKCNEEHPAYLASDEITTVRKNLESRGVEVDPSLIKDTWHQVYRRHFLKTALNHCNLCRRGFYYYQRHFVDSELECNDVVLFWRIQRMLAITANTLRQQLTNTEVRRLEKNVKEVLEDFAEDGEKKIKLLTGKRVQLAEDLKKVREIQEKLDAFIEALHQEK

T2: human OPA1 splice variant 4
T2 chain: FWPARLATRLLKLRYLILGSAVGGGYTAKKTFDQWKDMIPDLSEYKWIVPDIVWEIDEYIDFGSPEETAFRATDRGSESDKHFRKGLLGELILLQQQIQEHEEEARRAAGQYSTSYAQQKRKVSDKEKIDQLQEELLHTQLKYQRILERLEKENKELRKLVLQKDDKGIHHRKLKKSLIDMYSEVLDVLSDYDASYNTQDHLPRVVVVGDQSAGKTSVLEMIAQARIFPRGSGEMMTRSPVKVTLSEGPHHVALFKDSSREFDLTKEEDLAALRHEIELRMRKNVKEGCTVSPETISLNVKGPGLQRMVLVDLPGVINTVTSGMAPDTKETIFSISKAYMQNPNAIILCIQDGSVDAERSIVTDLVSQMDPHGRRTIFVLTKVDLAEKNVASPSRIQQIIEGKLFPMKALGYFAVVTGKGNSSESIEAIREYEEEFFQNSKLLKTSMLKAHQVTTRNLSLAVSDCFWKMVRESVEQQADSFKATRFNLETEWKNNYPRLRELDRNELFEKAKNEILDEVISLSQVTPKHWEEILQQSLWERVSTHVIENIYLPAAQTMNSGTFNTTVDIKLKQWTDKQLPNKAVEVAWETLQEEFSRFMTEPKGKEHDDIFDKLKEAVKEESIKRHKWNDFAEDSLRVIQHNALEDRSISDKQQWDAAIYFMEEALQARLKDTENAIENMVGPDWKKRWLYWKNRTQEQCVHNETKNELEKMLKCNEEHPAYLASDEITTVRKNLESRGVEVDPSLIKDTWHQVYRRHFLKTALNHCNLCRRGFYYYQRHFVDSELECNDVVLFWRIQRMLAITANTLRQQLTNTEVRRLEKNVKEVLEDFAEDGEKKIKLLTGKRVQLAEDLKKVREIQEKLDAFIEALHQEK

T3: human OPA1 splice variant 8 (A210V polymorphism)
T3 chain: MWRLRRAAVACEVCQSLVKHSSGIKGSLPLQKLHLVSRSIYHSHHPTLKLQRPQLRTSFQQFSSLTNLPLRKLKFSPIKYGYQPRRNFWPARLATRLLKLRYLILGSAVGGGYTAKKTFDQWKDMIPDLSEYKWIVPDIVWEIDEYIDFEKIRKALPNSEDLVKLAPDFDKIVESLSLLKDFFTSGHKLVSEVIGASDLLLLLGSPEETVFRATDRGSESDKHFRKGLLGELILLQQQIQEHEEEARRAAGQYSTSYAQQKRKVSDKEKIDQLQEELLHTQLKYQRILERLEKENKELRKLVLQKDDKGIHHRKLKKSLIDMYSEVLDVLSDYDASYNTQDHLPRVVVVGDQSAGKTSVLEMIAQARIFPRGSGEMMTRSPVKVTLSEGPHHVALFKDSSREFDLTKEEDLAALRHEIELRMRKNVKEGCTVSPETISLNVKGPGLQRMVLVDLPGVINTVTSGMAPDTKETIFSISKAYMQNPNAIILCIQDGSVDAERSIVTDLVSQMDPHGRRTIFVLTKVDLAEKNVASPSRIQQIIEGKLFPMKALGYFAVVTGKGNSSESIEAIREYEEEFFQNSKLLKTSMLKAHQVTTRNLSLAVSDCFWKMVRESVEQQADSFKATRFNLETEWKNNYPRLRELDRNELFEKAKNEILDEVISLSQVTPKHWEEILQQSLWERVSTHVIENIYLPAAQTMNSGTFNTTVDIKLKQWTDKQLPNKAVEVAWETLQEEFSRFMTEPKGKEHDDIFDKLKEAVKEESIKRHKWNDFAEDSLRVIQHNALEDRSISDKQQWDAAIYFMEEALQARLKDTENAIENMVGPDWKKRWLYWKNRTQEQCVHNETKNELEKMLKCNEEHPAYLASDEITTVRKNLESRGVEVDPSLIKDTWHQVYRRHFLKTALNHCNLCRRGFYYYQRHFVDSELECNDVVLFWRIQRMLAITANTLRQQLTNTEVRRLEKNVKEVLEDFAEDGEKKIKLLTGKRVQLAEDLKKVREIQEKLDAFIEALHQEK

B1: yeast m-AAA protease (subunits Yta10 and Yta12) (protein)
chain 1: MMMWQRYARGAPRSLTSLSFGKASRISTVKPVLRSRMPVHQRLQTLSGLATRNTIHRSTQIRSFHISWTRLNENRPNKEGEGKNNGNKDNNSNKEDGKDKRNEFGSLSEYFRSKEFANTMFLTIGFTIIFTLLTPSSNNSGDDSNRVLTFQDFKTKYLEKGLVSKIYVVNKFLVEAELVNTKQVVSFTIGSVDIFEEQMDQIQDLLNIPPRDRIPIKYIERSSPFTFLFPFLPTIILLGGLYFITRKINSSPPNANGGGGGGLGGMFNVGKSRAKLFNKETDIKISFKNVAGCDEAKQEIMEFVHFLKNPGKYTKLGAKIPRGAILSGPPGTGKTLLAKATAGEANVPFLSVSGSEFVEMFVGVGASRVRDLFTQARSMAPSIIFIDEIDAIGKERGKGGALGGANDEREATLNQLLVEMDGFTTSDQVVVLAGTNRPDVLDNALMRPGRFDRHIQIDSPDVNGRQQIYLVHLKRLNLDPLLTDDMNNLSGKLATLTPGFTGADIANACNEAALIAARHNDPYITIHHFEQAIERVIAGLEKKTRVLSKEEKRSVAYHEAGHAVCGWFLKYADPLLKVSIIPRGQGALGYAQYLPPDQYLISEEQFRHRMIMALGGRVSEELHFPSVTSGAHDDFKKVTQMANAMVTSLGMSPKIGYLSFDQNDGNFKVNKPFSNKTARTIDLEVKSIVDDAHRACTELLTKNLDKVDLVAKELLRKEAITREDMIRLLGPRPFKERNEAFEKYLDPKSNTEPPEAPAATN
chain 2: MLLLSWSRIATKVVRRPVRFRSYYGLTHIKSLHTQYRLLNRLQENKSGNKNEDNNEDAKLNKEIPTDEEVEAIRKQVEKYIEQTKNNTIPANWKEQKRKIDESIRRLEDAVLKQESNRIQEERKEKEEENGPSKAKSNRTKEQGYFEGNNSRNIPPPPPPPPPKPPLNDPSNPVSKNVNLFQIGLTFFLLSFLLDLLNSLEEQSEITWQDFREKLLAKGYVAKLIVVNKSMVKVMLNDNGKNQADNYGRNFYYFTIGSIDSFEHKLQKAQDELDIDKDFRIPVLYVQEGNWAKAMFQILPTVLMIAGIIWLTRRSAQAAGGSRGGIFGLSRSKAKKFNTETDVKIKFKDVAGCDEAKEEIMEFVSFLKEPSRYEKMGAKIPRGAILSGPPGTGKTLLAKATAGEAGVPFYFVSGSEFVEMFVGVGAARVRDLFKTARENAPSIVFIDEIDAIGKARQKGNFSGANDERENTLNQMLVEMDGFTPADHVVVLAGTNRPDILDKALLRPGRFDRHINIDKPELEGRKAIFAVHLHHLKLAGEIFDLKNRLAALTPGFSGADIANVCNEAALIAARSDEDAVKLNHFEQAIERVIGGVERKSKLLSPEEKKVVAYHEAGHAVCGWYLKYADPLLKVSIIPRGQGALGYAQYLPGDIFLLTEQQLKDRMTMSLGGRVSEELHFPSVTSGASDDFKKVTSMATAMVTELGMSDKIGWVNYQKRDDSDLTKPFSDETGDIIDSEVYRIVQECHDRCTKLLKEKAEDVEKIAQVLLKKEVLTREDMIDLLGKRPFPERNDAFDKYLNDYETEKIRKEEEKNEKRNEPKPSTN
B2: murine paraplegin expressed alone (Yta10 (1-61)-paraplegin (44-781)) (protein)
chain: MMMWQRYARGAPRSLTSLSFGKASRISTVKPVLRSRMPVHQRLQTLSGLATRNTIHRSTQIAARGTPVGPAAAGGHAPQSLLLRILTPSFEGISGLLLKQHIVPNAVRLWPLSGSTLYFNTSRMKQKNKDNDKPKGKTPEDDEEEKRRKEREDQMYRERLRTLFIIALVMSLLNSLSTSGGSISWADFVNEMLAKGEVQRVQVVPESDVVEVYLHPGAVVFGRPRLALMYRMQVANIDKFEEKLRAAEDELNIESKDRIPVSYKRTGFFGNALYALGMTAVGLAILWYVFRLAGMTGREGGFSAFNQLKMARFTIVDGKTGKGVSFQDVAGMHEAKLEVREFVDYLKSPERFLQLGAKVPKGALLLGPPGCGKTLLAKAVATEAQVPFLAMAGPEFVEVIGGLGAARVRSLFKEARARAPCIVYIDEIDAVGKKRSTSMSGFSNTEEEQTLNQLLVEMDGMGTTDHVIVLASTNRADVLDNALMRPGRLDRHVFIDLPTLQERREIFEQHLKGLKLTQPSSFYSQRLAELTPGFSGADIANICNEAALHAAREGHTSVHTFNFEYAVERVIAGTAKKSKILSKEEQRVVAFHESGHALVGWLLEHTEAVMKVSIAPRTNAALGFSQMLPRDQYLFTKEQLFERMCMALGGRAAEAISFSRVTSGAQDDLRKVTRIAYSMVKQFGMAPSIGPVSFPEAQEGLMGIGRRPFSQGLQQMMDHEAKLLVAKAYRHTEKVLLDNLDKLQALANALLEKEVINYEDIEALIGPPPHGPKKMIAPQKWIDAEKERQASGEEEAPAP
B3: homo-oligomeric murine Afg3l1 complex (Yta10 (1-61)-Afg3l1 (25-789)-Myc) (protein)
chain: MMMWQRYARGAPRSLTSLSFGKASRISTVKPVLRSRMPVHQRLQTLSGLATRNTIHRSTQIGGCAGSGGTVWSSVRACGIALQGHLGRCSQQLALQGKLTSFSPRLYSKPPRGFEKFFKNKKNRKSASPGNSVPPKKEPKNAGPGGDGGNRGGKGDDFPWWKRMQKGEFPWDDKDFRSLAVLGAGVAAGFLYFYFRDPGKEITWKHFVQYYLARGLVDRLEVVNKQFVRVIPVPGTTSERFVWFNIGSVDTFERNLESAQWELGIEPTNQAAVVYTTESDGSFLRSLVPTLVLVSILLYAMRRGPMGTGRGGRGGGLFSVGETTAKILKNNIDVRFADVAGCEEAKLEIMEFVNFLKNPKQYQDLGAKIPKGAMLTGPPGTGKTLLAKATAGEANVPFITVNGSEFLEMFVGVGPARVRDMFAMARKHAPCILFIDEIDAIGRKRGRGHLGGQSEQENTLNQMLVEMDGFNSSTNVVVLAGTNRPDILDPALTRPGRFDRQIYIGPPDIKGRSSIFKVHLRPLKLDGSLSKDALSRKLAALTPGFTGADISNVCNEAALIAARHLSPSVQERHFEQAIERVIGGLEKKTQVLQPSEKTTVAYHEAGHAVVGWFLEHADPLLKVSIIPRGKGLGYAQYLPREQFLYTREQLFDRMCMMLGGRVAEQLFFGQITTGAQDDLRKVTQSAYAQIVQFGMSEKLGQVSFDFPRQGETMVEKPYSEATAQLIDEEVRCLVRSAYNRTLELLTQCREQVEKVGRRLLEKEVLEKADMIELLGPRPFAEKSTYEEFVEGTGSLEEDTSLPEGLKDWNKGREEGGTERGLQESPV

How the values were obtained:
[1] = target: T1, human OPA1 splice variant 7
[2] = target: T2, human OPA1 splice variant 4
[3] = target: T3, human OPA1 splice variant 8 (A210V …)

Row | Protein | OPA1 processing (western blot, yeast deletion strains) [1] | OPA1 processing (western blot, Δyta10Δyta12 yeast) [1] | OPA1 processing (western blot, Δyta10Δyta12 yeast) [2] | OPA1 processing (western blot, Δyta10Δyta12 yeast) [3]
1 | B1 | small isoforms did not accumulate in cells lacking the yeast m-AAA protease subunits Yta10 or Yta12 | – | – | –
2 | B2 | – | Cleavage of OPA1 upon expression of paraplegin alone was not observed | – | –
3 | B3 | – | expression of each of the murine subunits, Afg3l2 or Afg3l1, in Δyta10Δyta12 cells promoted OPA1 processing; the isoform S4 predominantly accumulated in the presence of Afg3l1 | Afg3l1 and Afg3l2 complexes mediated processing of OPA1 splice variants 4 and 8 in a similar manner | Afg3l1 and Afg3l2 complexes mediated processing of OPA1 splice variants 4 and 8 in a similar manner
